Experimental data as given in patent EP1593386A1 (Charité - Universitätsmedizin Berlin, dated 2005).

Molecular target: T1, CD7 on human peripheral blood T lymphocytes (human, UniProt P09564 26-240)
T1 construct: whole, on cells
T1 sequence (looked up): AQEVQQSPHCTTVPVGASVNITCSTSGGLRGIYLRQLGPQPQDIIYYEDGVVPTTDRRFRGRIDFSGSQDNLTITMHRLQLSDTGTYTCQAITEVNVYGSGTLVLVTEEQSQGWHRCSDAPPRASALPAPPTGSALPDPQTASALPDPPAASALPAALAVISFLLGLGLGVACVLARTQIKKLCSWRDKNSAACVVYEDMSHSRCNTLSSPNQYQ
Experiment: pull-down with galectin-2 coated tosyl-activated magnetic beads on PBT, immunoblot for CD7

binding result: no binding
B1: galectin-2 (ligand, UniProt P05162 1-132, looked up)
chain: MTGELEVKNMDMKPGSTLKITGSIADGTDGFVINLGQGTDKLNLHFNPRFSESTIVCNSLDGSNWGQEQREDHLCFSPGSEVKFTVTFESDKFKVKLPDGHELTFPNRLGHSHLSYLSVRGGFNMSSFKLKE
modifications: biotin-labelled (sites not given) in the flow cytometry assays; coupled to tosyl-activated magnetic beads in the co-immunoprecipitation
notes: also called Gal-2; biotin-labelled galectin-2
